# Test results taken from a protein production outcome set (Wang et al. 2014).
# Experiment: label from the status in PepcDB records
row,Sequence,protein production
1,MTKQQKGFVTGQPTGALNLSDILDSEELGEYHLMSAAIITGNTVDFSGLGAGPDDPFEIASITKIFTGELLRLQIERGEITESTAVGDVLGERVADSLIRDITVEELANHTSGLPRLGNVGLRPFMATFFDKNPYKDLSADRVISISTTSKLNSRGEFHYSNLGFALLGQVLARNAGLTFDQLLDRDLLAPLNLNNTKLMTPESLAQDAPQGFSTPGKQVEAWEMDGFLPAAGLRSTARDMAVFCQYLFTKGPAPFTWQSLESAPEIVWHNGESFGYSSVLFFNTATTTAIFVAADVATSVFPIGHELLMANSTRQESKLEHHHHHH,failed
2,MQTLREFTRKTKRGNILKIVREHYLRDDIGCGSELCRECFQNEVYQLTSQHANKSTLFKFPHYLVLDTNVVLDQIDVLEEDVLRNVVVLTTVLNEVKHRSSAIYKRFNEIVHDRTRNFYVFVNEHHKETYADREPDETANDRNDRAIRLATKWYDDHLQASQSSKEFERSGKAATRVVLLTDDAANRAKAEAEGILVTTAAEYVKSLEDFPLLMDKLSHKTFDSEKNGLPQYPPHLSMKELLEGLRQNKLLQGTFQASRENYLEGTVNVEKFEKGILIQGRESLNRAVDGDLVAVELLPEAEWSAPSEIVLEEKNVYADEVPSEERAKDENEMLNQVRAAALSAERTPTGRIVGIVRRKWRQYCGILQPSLIEDTNRHIFVPADRKIPRIRIETRQAAMLQNQRIIVTIDTWPRNSRYPHGHFVRSLGPLGDMATENEVILLEHDVPHCKFSDEVLSFLPKMPWTITDEDYSKRVDLRDLYICSVDPPGCTDIDDALHCKELPNGNLEVGVHIADVSHFIRPGNALDMEAAARGTTVYLVGKRIDMVPELLSSNLCSLVGGVERFAFSCVWEVDNEANVLSKRFHKSVIKSKRAMTYEEAQNIIDDATQQNEIAKSLRNLNRLAKILKKRRMDNGALVLASPEIRFQVDSETHEPLEVEVKQMRETNSMVEEFMLLANITVAEHIATEFSECAVLRRHPRPPPTNFDPLVKSARYQGFQVDINSGLELSHSLDKCVKADNPYFNTMIRILTTRCMMQAVYFISGSLQKEEFFHYGLAAPIYTHFTSPIRRYSDIMVHRLLAASIGADSTYAQLLDRKSNEELCHNLNYRHKMAQYAGRASVALNTHLFFRGKEEDEEGYVLFVRKNALQVLIPKYGLEGTLYLKSDKDGKDGVERVKSEIVFTFNEEDHTQRCGDVVFHSFDPVTVRLSLDSSNVQHEKLIFRLVKPYIKGFSVETTTEGTDSQAVSAAPPSKKTKKDKKKK,failed
3,MADYNNAVVFYDTSGIEYSKQIKKTLERGFERECFLINLDNRENTLSRLNLAMKTSKYVIFLFSSMYSNENMLDEAKTAFNSDKHIISLKLDDPELKKQISIHQSEFEDNYGLSKKVNDEVEKLKKMEKKGTDFVESQISFNMGNIYFNFGKYAEAIRCYKKAVKIIPDFVDALHNFNSLSNMNLFDMGEEPKKPVLYKDVTIDELVPDIFSNTVQKEPEEPQKYSELEPEELEDLILDGEIGENLEEIGSEDELTEKIDDKLPEIDESKDKSKAQPEDELNETFEEGIEYETFEVIDAEEKNEISDENLEISSLEPEFEEKSIFKLEKETEQPELEENLEPVLEVPEELVEDVEILDASEEDIEKELENQEVIIEEKLETLDELLDKSELESELVEEHTYEIDNNEFLEILSFANTLYESGDFEAAKTEYKKAIALNPGNSEVHNHYGCLLEYLEKYGEAEIEFKKAVALDGSNSKAYNNLATFLAKSEKYDEAEEHYKKAIEIAPDYWAAIYNLAAMYAALKRYDEAVAQVKSMVKIFRSDGNIKEVLELKKLIKHLKKLKIQKS,failed
4,MTMNPLPLQKEAEKRSPRLNSPFKSLMRIHWWMALAYLIVFCTGTLMVNLERGQFLRSELYDFHKSIGILTMALLTWRIFTLLQVWWRKYTKRPPKLSLAWWRTFTLHLSLYVFMGVIPISGFLLSNSFKANNVRFFSITLPDIFPQNEAMVEIGRNAHFWLAYTFLIFIFIHMLTYWKVIRANWRRWVNFIGKFQQQT,failed
5,MSLDRIRLASLHDKVISADAAAAFIQDGMTVGMSGFTRAGEAKAVPQALVERAKQNPLKITLITGASLGNDLDKQLTEAGVLARRLPFQVDNTLRRAINNGEVMFIDQHLSETVEQMRNLQLKRPDVAVIEAIAITEDGGIIPTTSVGNSASFAIFAEKVIVEINTSLSEAFEGLHDIYIPSYRPTRQPIPLTKVDERIGTTAIQIDPAKIVGIVFNDTADSPSTVTLPDDETQGIANHLIAFFEKEVAEGRLPQNLGPLQAGIGSIANAVLTGLKDSNFEDLVMYSEVLQDCTFELIDAGKMKFASGSSITLSAKCGEKVFGNIEAYKDKLVLRPQEISNHPELVRRLGIIGINTALEFDIYGNVNSTHVCGTKMMNGIGGSGDFARNAHLAIFVTKSIAKGGDISSIVPMVSHVDHSEHDVDILVTEQGLADLRGLAPRERARAVIDHCVHPLYKDALNDYFSRASAKGGHTPHLLREALSWHVNFEENGHMLAIEPEAKSA,failed
6,MYNSATVIYQNLLKSTPKKASEYYYYLGDICWRKEKTDSAKYYFMEGIKTDETYAMNYVGIGIITMKSNATEGQRSFDKALQMTSQKNSQVLNAIGEYYILEADKAELPKGIALLKKSTEIDAKNAMSWILLGDAYGKQAEGSKQAESYGKAANLFHSVPLLKMKYGKMYAAARNKDLSIKYYNEGLAADPTYGPIYRELGDLYNRFRQYDLAIQNYKKYLTYIDSNDDVEFRYADFLFKNNNYAEAIEVFNKLEAKKYNSPYIYNRRAVCYYELAKYDLAQKDIETYFSKVNATKAKSADFEYYGKILMKKGQDSLAIQQYQAAVDRDTTRLDMYGQIGSYFYNKGNFPLAIQYMSKQIRPTTTDPKVFYELGQAYYYNKEYVKADSSFVKVLELKPNIYIGYLWRARANAAQDPDTKQGLAKPYYEKLIEVCAPGGAKYKDELIEANEYIAYYYTINRDKVKADAAWKNILALDPTNKKAIDGLKMK,failed
7,MSAEPRLHTLRVARTARVATLGTPATAGSWWVVLHGYGQLAADFVSAFHPLVAPDRCVVAPEGLSRFYVDGMAQHEQVGASWMTREAREAEVSDYVDALDATVRHLADDTPPSLHVLGFSQGAVTASRWALWGDTAVDRLVLWGGAPAHDLDLAEHAASLRALDLTLVAGTEDPYVTDDRWAAIRRRLQAHDIPVTTRTFEGGHRIDPAPLRALVAPA,failed
8,MRWKYLVVLLIVILLASGCAEKSQGPGASAAFQEPESDTQDTEKTGNSEEGVHIDSVVFSRAGALLTLKDEAEISEIRVYSESEEIASQEIGKNKDNVFVSFNWDPEARYRFEVITGSGASGTIEAYAPSKPALKKEYTIELEDVTPGDIEKTSTNVEGALKFSPDSEYLAIGTNGGSLKLIKVATGEKVWEKQLVKGIADARIADIEFSEDGKRLFVGEESPDAFLYCFDLEGTEIWKYGAGKELGSDLKYMPAMKKIKLDSEGNIYVAASRACGYIGEKYKYLARIYSFDPEGNLRWKFPESEYMDSGVTWIDATPDGKYAVFGTTCFTETEKWREGTVHALNGNTGQEHWSYKIQPVEPFFDYSAIWYSTQITPDGEKLITMTSDGRAFLFNNSRIIETGTPEITWQQNISTPIVVSGVPIYGSANYAYIVNDTLIFSIGSTFSKDKNKDAPFEHPSGNSLFAYDYDGNLLWKWRVDGYAGECAVNDRYLVIPLAQNLVTEDRSVHGVYVFDASKSGGASSRLIQTYNTEGITVSADISPDGRYIAALEAPSRLDDGTVLGEYKVHILT,failed
9,MQDERWNHPLYTTTAINDEELEGHAYIPGGLKVQTSSPMNDHPGTNPEQLLGLSLSTCLEATLEAVEKEHGLPHTGAVRVKVAFIGARAEYQFLVHAQVMVKGVDFDTAKAFTNEIENRCPVSKLLKNSGNYTIETVTDFKD,not failed
10,MDKILEILKDFGIVELRPPQKKALERGLLDKNKNFLISIPTASGKTLIGEMALINHLLDGNKNPTNKKGIFIVPLKALASEKYEEFKSKYERYGLRIALSIGDYDEDEDLSKYHLIITTAEKLDSLWRHKIDWINDVSVVVVDEIHLINDETRGGTLEILLTKLKEFNVQIIGLSATIGNPDELAEWLNAELIVDDWRPVELKKGIYKNEAIEFINGEIREIKAVDNNDIYNLVVDCVKEGGCCLVFCNTKRNAVNEAKKLNLKKFLTEEEKIRLKEIAEEILSILEPPTEMCKTLAECILNGSAFHHAGLTYQHRKIVEDAFRKRLIKVICCTPTLCLNANTEILQESGFRKITELNKDEKVFALCGKEIKPVDGWKVHKTPQHEYNIVVKTVNGLEITTTPNHIFLVKENGSLKEKEAKDLKVGDYVATVDRIRVKEKDIDLSNGDLYFIGYFIGDGYTGVIEKNTLKATPDLAFNPKYPPNFDDSELHKKYFLKCRISKGVAHYIYSKKLRKIFNKLNMLTKDNKNIDAFCNLPLDKLAYLIAGLFDSDGYIYLNRKNIEFYSISEKLVEQLQFVLLRFGIHSSIRKKKTKTMVSPTNGKEYKCKDIYVLTIRDFMSIKRFYENIPLRHEEKRRKLEEIIKNKEIGQIPSEFVALRFTPIAKIWCDCGFSVDLTMFKPRTKRQRELNKKRVKLLFELLDGKKLITNYKEYYSKRKNPYFDFIVREKINGNNYYSLNEKGRVLMSLLNKHIKDKENLEEMYNFLVNLEKCPICGKPIHKEMRYSWKKECYDGDIYWDRIKEIKKIKVNDKYAYDIELPDDGSNSHYIVANGFIVHNSAGLNLPCRRAIVKDLTRFTNKGMRYIPIMEIQQCIGRAGRPGLDPYGEGIIVAKNDRDYLRAYQALTQKPEPIYSKLSNQAVLRTQLLGLIATGEIRDEYDLEWFIRNTFYAHQYGNLREVAKNINEVIRFLEENEFIIDFMPTELGKRVSELYIDPLSAKFIIDGLEEMENEEEIYYLYLISKTLEMMPNLRVYNSEELNLIDEMDSLGIKSFEIEDLEAFKTAKMLYDWINEVPEDEILKRYKIEPGILRYKVENAVWIMHALKEIAKLIGKSSDIPEKLEIRLEYGAKEDIIELLSIKYIGRVRARKLYNAGIRSIEDIINNPSKVASIIGEKIAKKILDELGVKFGQQKLSF,failed
11,MQNIRVVLARPNHPGNIGSAARAMKTMGLSRLYLVEPKVFPSEEANALASGAVDLLENATVVGSLREALSDVTVACALTSRRRELTTPLSTPRQTTPELIARARDGEQVALVFGNETFGLSIEEVEQCNRLVTIPGNPDYFSLNLAMAVQVMTYELFSHTGVDVEYLRAEGEAATQSEVDGMCGHLEQAMDEIGYFQRRNSERLMRRMRTMFHRAGMLREEIDILRGFYKQVQRTASGRSGDAD,failed
12,MFFNKKNNQDELKKLAATEAAKSITTEITLGVGTGSTVGFLIEELVNYRDKIKTVVSSSEDSTRKLKALGFDVVDLNYAGEIDLYIDGADECNNHKELIKGGGAALTREKICVAAAKKFICIIDESKKVNTLGNFPLPIEVIPMARSYIARQIVKLGGQPVYREQTITDNGNVILDVYNLKIDNPLKLETELNQITGVVTNGIFALKPADTVIMATKDSNIVVL,not failed
13,MSKKKETKLSKYIKVPIKMLVKARDMYIRSMNQFSSHDLPGSGMSFGIPVCNVSTLPRSFSASHSQYSVRAEDDRVAKLVRAASARNATIDGARHEPSKLRKAKSSRSCGGHRGFEKIDEASPLISFGSKHKMFQRSKSYSVVKYLGS,failed
14,MNQLTAYTLRLGDNCLVLSQRLGEWCGHAPELEIDLALANIGLDLLGQARNFLSYAAELAGEGDEDTLAFTRDERQFSNLLLVEQPNGNFADTIARQYFIDAWHVALFTRLMESRDPQLAAISAKAIKEARYHLRFSRGWLERLGNGTDVSGQKMQQAINKLWRFTAELFDADEIDIALSEEGIAVDPRTLRAAWEAEVFAGINEATLNVPQEQAYRTGGKKGLHTEHLGPMLAEMQYLQRVLPGQQW,not failed
15,MDMSLHFLSQGDLSGVWGRVYWRRRAGFKAIKIQSAFKAYLARKALWAGKCNGWDSSALTKEDIKAIWLRKQEGLKELFLQERRSPHMLEDSLSTPRQRVGLMDSLFVNYKKDGDKVSLWTSFVCENSKINNAKKSSLTTYQHNC,not failed
16,MGASTFWIITIVFCIAIYFLDKFLRKKLNMPKGGFWGYKKHVNSLHKKLEIGLLFIYLITSFIFIFKFESINIAYVIFTYLGGTLILRALMEWKYDRESKEYIFSVIGVFTFIFMTSILFYFFPPAV,failed
17,VMVFISSSLNSFRSEKRYSRSLTIAEFKCKLELVVGSPASCMELELYGADDKFYSKLDQEDALLGSYPVDDGCSIHVIDHSG,not failed
